Where a chain is given by its changes, count along the chain named.
B1: FY1/39 BiS1 100/44 (bispecific antibody)
light: DIQMTQSPSSVSASVGDRVTITCRASQDISTWLAWYQQKPGKAPKLLIYAASSLQSGVPSRFSGSGSGTDFTLTISSLQPEDFATYFCQQANSFPPTFGCGTKLEIKGGGGSGGGGSGGGGSGGGGSEVQLVVSGGGLVKPGGSLRLSCAASGLSFLNAWMSWVRQAPGKCLEWVGRIKSNTDGGTTDYAAPVKGRFSISRDDSKNMLFLHMSSLRTEDTAVYYCATDGPYSDDFRSGYAARYRYFGMDVWGQGTTVTVSSGGGGSGGGGSDIQMTQSPSSLSASVGDRVTITCRTSQSLSSYLHWYQQKPGKAPKLLIYAASSLQSGVPSRFSGSGSGTDFTLTISSLQPEDFATYYCQQSRTFGQGTKVEIKRTVAAPSVFIFPPSDEQLKSGTASVVCLLNNFYPREAKVQWKVDNALQSGNSQESVTEQDSKDSTYSLSSTLTLSKADYEKHKVYACEVTHQGLSSPVTKSFNRGEC
heavy: not shown
B2: FBC39 IgG (antibody, V domains shown)
VH: EVQLVVSGGGLVKPGGSLRLSCAASGLSFLNAWMSWVRQAPGKGLEWVGRIKSNTDGGTTDYAAPVKGRFSISRDDSKNMLFLHMSSLRTEDTAVYYCATDGPYSDDFRSGYAARYRYFGMDVWGQGTTVTVSS
VL: DIQMTQSPSSVSASVGDRVTITCRASQDISTWLAWYQQKPGKAPKLLIYAASSLQSGVPSRFSGSGSGTDFTLTISSLQPEDFATYFCQQANSFPPTFGQGTKLEIK
B3: FBD94 IgG (antibody, V domains shown)
VH: EVQLVESGGGLVQPGRSLRLSCAVSGFIFEDYAINWVRQAPGKGLEWVSIISWDSGRIGYADSVRGRFTISRDNAKNSSFLQMNSLRPEDTAVYYCVKDMLAYYYDGSGIRYNLYGMDVWGQGTTVTVSS
VL: EIVLTQSPATLSLSPGERATLSCRASRSITTFLAWYQQKPGQAPRLLIYDASNRATGVPARFSGSGSGTDFTLTINSLEPDDFAIYYCQQRDHWPPIFGQGTRLEIK
B4: FY1/94 BiS2 100/44 (bispecific antibody)
light: DIQMTQSPSSLSASVGDRVTITCRTSQSLSSYLHWYQQKPGKAPKLLIYAASSLQSGVPSRFSGSGSGTDFTLTISSLQPEDFATYYCQQSRTFGQGTKVEIKRTVAAPSVFIFPPSDEQLKSGTASVVCLLNNFYPREAKVQWKVDNALQSGNSQESVTEQDSKDSTYSLSSTLTLSKADYEKHKVYACEVTHQGLSSPVTKSFNRGEC
heavy: not shown
B5: FY1/39 BiS3 100/44 (bispecific antibody)
light: B4 light
heavy: not shown
B6: FY1/94 BiS4 100/44 (bispecific antibody)
light: B4 light
heavy: not shown
B7: FY1/39 BiS2 100/44 (bispecific antibody)
light: B4 light
heavy: not shown
B8: FY1/39 BiS4 100/44 (bispecific antibody)
light: B4 light
heavy: not shown
B9: GL20/39FTL BiS4 43/105 (bispecific antibody)
light: B4 light with L33T, L54R, Q55G
heavy: not shown
B10: GL20/39 BiS4 100/44 (bispecific antibody)
light: B4 light with L33T, L54R, Q55G
heavy: not shown
B11: FY1/39 BiS4 43/105 (bispecific antibody)
light: B4 light
heavy: not shown
B12: FY1 IgG (antibody, V domains shown)
VH: QVQLQESGPGLVKPSQTLSLTCAISGDSVSSNNAVWNWIRQSPSRGLEWLGRTYYRSKWYNDYAESVKSRITVNPDTSKNQFSLHLKSVTPEDTAVFYCVRSGHITVFGVNVDAFDMWGQGTMVTVSS
VL: DIQMTQSPSSLSASVGDRVTITCRTSQSLSSYLHWYQQKPGKAPKLLIYAASSLQSGVPSRFSGSGSGTDFTLTISSLQPEDFATYYCQQSRTFGQGTKVEIK
B13: GL20/39FTL BiS4 100/44 (bispecific antibody)
light: B12 VL with L33T, L54R, Q55G
heavy (part 1 of 2): B12 VH with E6Q, N32Y, K58G, V73I, H85Q, K87N, F97Y, V100A
heavy (part 2 of 2): DIQMTQSPSSVSASVGDRVTITCRASQDISTWLAWYQQKPGKAPKLLIYAASSLQSGVPSRFSGSGSGTDFTLTISSLQPEDFATYYCQQANSFPPTFGCGTKLEIKGGGGSGGGGSGGGGSGGGGSEVQLVESGGGLVKPGGSLRLSCAASGFTFLNAWMSWVRQAPGKCLEWVGRIKSNTDGGTTDYAAPVKGRFTISRDDSKNTLYLQMSSLKTEDTAVYYCTTDGPYSDDFRSGYAARYRYFGMDVWGQGTTVTVSS
B14: GL20 IgG (antibody, V domains shown)
VH: B12 VH with E6Q, N32Y, K58G, V73I, H85Q, K87N, F97Y, V100A
VL: B12 VL with L33T, L54R, Q55G

Target: recombinant HA derived from A/California/07/2009 H1N1 (influenza A virus, UniProt P26140 18-529)
Test: ELISA, rHA coated on plate

Row | Binder | EC50 | binding result
1 | B1 | 6.85 nM | 
2 | B2 |  | no binding
3 | B3 |  | no binding
4 | B4 | 6.83 nM | 
5 | B5 | 1.52 nM | 
6 | B6 | 1.53 nM | 
7 | B7 | 3.97 nM | 
8 | B8 | 1.19 nM | 
9 | B9 | 0.86 nM | 
10 | B10 | 0.95 nM | 
11 | B11 | 0.78 nM | 
12 | B12 | 2.15 nM | 
13 | B13 | 0.99 nM | 
14 | B14 | 1.99 nM | 

From US20180155413A1 (AstraZeneca / MedImmune, published 2018)
